The assay deals with hippocampal proteins. Kind of assay: DIA quantification proteomics, hippocampus of Mdga2+/- vs WT mice. Also on record: species or system mouse. The settings on record: S3 Table, downregulated DEPs; for log2FC: Mdga2+/- vs WT mouse hippocampus (HET-HIP-VS-WT-HIP), SE, pvalue and adj_pvalue in own columns c3-c5; for Class: regulation class of the protein, HET-HIP-VS-WT-HIP. The procedure: The hippocampus of 1.5–2-month-old Mdga2^ +/− male mice and their WT littermate controls was collected and sent to the BGI company for DIA quantification proteomics and data analysis. Briefly, samples were lysed and sonicated. After centrifugation, the supernatant was taken for quantification. Equal amounts of proteins (100 μg) per sample were subjected to trypsin enzymatic hydrolysis. After dryness, 10 μg enzymatic peptides per sample were separated by high-pH fractionation into a total of 10 fractions using high-performance liquid chromatography (HPLC) and freeze-dried. Data-dependent acquisition (DDA) fractions and DIA samples were analyzed by nano-LC–MS/MS. DDA data was identified by Andromeda search engine within MaxQuant. Identified results were used by Spectronaut^TM for spectral library construction. For DIA data, Spectronaut^TM used the constructed spectral library information to complete deconvolution and extraction, and used the mProphet algorithm to complete analytical quality control for obtaining reliable quantitative results. The mass spectrometry proteomics data have been deposited to the ProteomeXchange Consortium via the PRIDE [62] partner repository with the dataset identifier PXD050810. DEPs between comparison groups were identified based on the quantitative results, using the fold change >1.1 and p-value <0.05 as the criteria. After retrieval from the UniProtKB database, identified DEPs were processed for GO analysis by using DAVID (https://david.ncifcrf.gov/home.jsp) and Metascape database (https://metascape.org/gp/index.html).

In PMC11960969, “Mdga2 deficiency leads to an aberrant activation of BDNF/TrkB signaling that underlies autism-relevant synaptic and behavioral changes in mice” (PLOS Biology, 2025) one finds log2FC and Class data, which are given here for eight molecules.

B1: sp¦P48381¦RFX3_MOUSE (protein, UniProt P48381 1-749, looked up)
Transcription factor RFX3: MQTSETGSDTGSTVTLQTSVASQAAVPTQVVQQVPVQQQVQQVQTVQQVQHVYPAQVQYVEGSDTVYTNGAIRTTTYPYTETQMYSQNTGGNYFDTQGSSAQVTTVVSSHSMVGTGGIQMGVTGGQLISSSGGTYLIGNSMENSGHSVTHTTRASPATIEMAIETLQKSDGLSTHRSSLLNSHLQWLLDNYETAEGVSLPRSTLYNHYLRHCQEHKLDPVNAASFGKLIRSIFMGLRTRRLGTRGNSKYHYYGIRVKPDSPLNRLQEDMQYMAMRQQPMQQKQRYKPMQKVDGVADGFTGSGQQTGTSVEQTVIAQSQHHQQFLDASRALPEFGEVEISSLPDGTTFEDIKSLQSLYREHCEAILDVVVNLQFSLIEKLWQTFWRYSPSTPADGTTITESSNLSEIESRLPKAKLITLCKHESILKWMCNCDHGMYQALVEILIPDVLRPIPSALTQAIRNFAKSLEGWLSNAMNNIPQRMIQTKVAAVSAFAQTLRRYTSLNHLAQAARAVLQNTSQINQMLSDLNRVDFANVQEQASWVCQCDDNMVQRLETDFKMTLQQQSTLEQWAAWLDNVMMQALKPYEGRPSFPKAARQFLLKWSFYSSMVIRDLTLRSAASFGSFHLIRLLYDEYMFYLVEHRVAQVTGETPIAVMGEFGDLNAVSPGNLDKDEGSEVESETDEDLDDSSEPRAKREKTELSQAFPVGCMQPVLESAVQPSLLNPLHSEHIVTSTQTIRQCSATGNTYTAV
On to B1, for which the log2FC is -1.5061 and the Class entry was “Down”.

B2: sp¦Q8C5W0¦CLMN_MOUSE (protein, UniProt Q8C5W0 1-1052, looked up)
Calmin: MAAQEWDWFQREELIGQISDIRVQNLQVERENVQKRTFTRWINLHLEKCDPPLEVTDLFVDIQDGKILMALLEVLSGRNLLHEYKSSSHRIFRLNNIAKALKFLEDSNVKLVSIDAAEIADGNPSLVLGLIWNIILFFQIKELTGNLSRSSPSSSLSPGSGGTDSDSSYPPTPTTERSVAVAVKDQRKAIKTLLSWVQRKTRKYGVAVQDFAGSWRSGLAFLAVIKAIDPSLVDMKQALEDSTRDNLEKAFSIAHDSLHIPRLLEPEDIMVDMPDEQSIVTYVAQFLERFPELEPEDFVNPDKEAPIESTFVRIKESPSEQGSRVLLLSENGERAYTVNQETSYPPPDKVFVCDQLESPTGFCLDSAPSHKLSDSSTEFMHEIIDQVLQGSTGKTGSIAEPTPESSILSTRKDGRRSNSLPVKKTVHFEADLHKDASCSKDPFYSSDFRFEGSPKATKELSKQDGHVSLAEVSKEKKKSEQEARLVLEAASDKVPESTVDGLDAVPQDAQPSQDSSFCNGTVESPSSQGEKGPPPSSPGDHTLLANSTELKVQLLTVEPMDKEDYFECIPLKASKFNRDLVDFASTSQAFGEDPSSHEKTRGEEEGSENHAEKPGKRKSKSPRAETEAAESRLEPKKLEPPPKDPEQEDQGHALPPETPADKKPKVYEKAKRKSTRHHSEEEGEAESGFSAVCEEEIPSAPPSTSVSLETLRSHSEEGLDFKPSPPLSKISVIPHDLFYYPHYEVPLAAVLEAYAEGGEDLKSEDTDLEHPEDSYLQDSREEEADEDEEEAQSSQSSCSFSLPVDNSYPSVSEHVSHVDGSSEGPTSALGPGSPPSHEDHQPKETKENGPVESQQSQEPPNPELPTKPLEEKLTEASTSSKKKEKRKHMDHVESSLFIAPGTVRSSDDLEENSSEHKVPSRNSHSDSSIYIRRHTNRSLELDHFSYVQLRNAADLDDRRNRVLNRYNSQKLTELILQFYGIRADMKREYKHARLSMTGTNSSGEAVPLGNQSPPNDSLTQFVQQPDVIYFILFLWLLVYCLLLFPQLDVSRL
With B2, the log2FC is -1.505 and the Class result is given as “Down”.

B3: sp¦Q3TVI8¦PBIP1_MOUSE (protein, UniProt Q3TVI8 1-727, looked up)
Pre-B-cell leukemia …: MASCPDSDNSWVLAGSENLPVETLGPEPRMDPESEGASQALRDSSKADGKELAGTLDGEEKLFQTESSQRETAVLTESAAKGTLGADGHGTEAPGDTVVQEDSQETPVATSLGPDTQDLESEIHPQNLPSSPRAVWKEHRCSSSDDDTDVDVEGLRRRRGREPSSSQPVVPVDVEDQAKGEGIGGELGISLNMCFLGALVLLGLGILLFSGTLLEPETGPMEEAELQVFPETGPETELVETLGNRQDEIEHLQASSVPPDSVPSLQSMGFLLDKLAKENQDIRLLQAQLQAQKEELQSLLHQPKGLEEENARLREALQQGKTSHQALESELQQLRARLQGLEANCVRGVDGVCLNWGGDPQDGKATKEQGHKGQEPDPSLLEQHKQLEAEAKALRQELQRQWQLLGSVHWDLQRGLRDAGRGAPAHPGLAELGHMLAQTLQDLENQGINTGRSPNDSEAWHQKKPHTQSPREWGGKEKWRGGQRDQKAEHWKPRKEESGQERQRSWRDEGREHTGRWREDRLRADESGSRKDSKRQDPKVHPRKDGNSHSVERQKHSWGKDNSPDALSSWEELLRRKYRPPQGCSGVADCARQEGLALFGVELAPVRQQELASVLREYLSRLPWAGQLTKQLPLSPAYFGEDGIFRHDRLRFRDFVDALEDSLEEVALKQTGDDDEVDDFEDFVFGHFFGDKALKKRSRKKEKHSWNPRVVGPREEHSRHPHHYHQG
With B3, the log2FC was -1.692 and the Class entry is reported as “Down”.

B4: sp¦Q8BZ60¦STON2_MOUSE (protein, UniProt Q8BZ60 1-895, looked up)
Stonin-2: MTTLDHVIATHQSEWVSFSEEPLFPTPLEGGTEEHFPGLSSSSERSESSSGENHVVDEGSQDLSHSEQDDSSEKMGLISEAASPPGSPVQPTPDLASAISNWVQFEDDTPWSSTSPPHKETALTLTMPCWTCPSFDSLRRCPLTSESSWTTHSEDTSSPSVAPSYTDLQLINTEEQASGRASGTDSTDNSSSLQEDEEVEMEAISWWAGSPAMNGHPAAPPVTTARFPSWVTFEDNEVGCPSPPVPSPKKPNTPSAATAAPDVPFNSTGSFKRDRPKSTLMNLPKVQKLDISSLNRPPSVIEAPPWRATNPFLNETLQDVQPSPINPFSAFFEEQERRSQNSSVSSTTGKSQRDSLIVVYQDAISFDDSGKSQPHPDAIEKLKQLQIDDPDPVGNTALPDDDPTASVELDAPSPASALSQPRDGWPMMLRIPEKKNIMSSRHWGPIYIKLTASGYLQLYYEQGLEKPFREFKLEICHEVSEPRLQNYDENGRIHSLRIDRVTYKEKKKYQPKPAVAHAAEREQVIKLGTTNYDDFRSFIHAVQDRLMDLPVLSMDLSTVGLNYLEEEITVDVRDEFSGTVGKGDNQILQHHVLTRIHILSFLSGLAECRLGLNDILIKGNEIVSRQDIMPTTTTKWIKLHECRFHGCVDEDVFNSSRVILFNPLDACRFELMRFRTVFAEKTLPFTLRTAASINGAEVEVQSWLRMSPGFSSNRDPLTQVPCENVMVRYPVPSEWVKNFRRDSVLGEKSLKAKVNRGASFGSAGASGSEPVMRVTLGTAKYEHAFNSIVWRINRLPDKNSASGHPHCFFCHLELGSDREVPSRFANYVNVEFSMPTTSASKAAVRSVSVEDKPDVRKWVNYSAHYSYKVEIEQKKSLKPDFEGEDLENPKECGVQ
As for B4, the log2FC was -1.549 and the Class result is listed as “Down”.

B5: sp¦P43135¦COT2_MOUSE (protein, UniProt P43135 1-414, looked up)
COUP transcription factor 2: MAMVVSTWRDPQDEVPGSQGSQASQAPPVPGPPPGAPHTPQTPGQGGPASTPAQTAAGGQGGPGGPGSDKQQQQQHIECVVCGDKSSGKHYGQFTCEGCKSFFKRSVRRNLSYTCRANRNCPIDQHHRNQCQYCRLKKCLKVGMRREAVQRGRMPPTQPTHGQFALTNGDPLNCHSYLSGYISLLLRAEPYPTSRFGSQCMQPNNIMGIENICELAARMLFSAVEWARNIPFFPDLQITDQVALLRLTWSELFVLNAAQCSMPLHVAPLLAAAGLHASPMSADRVVAFMDHIRIFQEQVEKLKALHVDSAEYSCLKAIVLFTSDACGLSDVAHVESLQEKSQCALEEYVRSQYPNQPTRFGKLLLRLPSLRTVSSSVIEQLFFVRLVGKTPIETLIRDMLLSGSSFNWPYMAIQ
In the case of B5, the log2FC was -1.636 and the Class result is “Down”.

B6: sp¦P50172¦DHI1_MOUSE (protein, UniProt P50172 1-292, looked up)
11-beta-hydroxysteroid …: MAVMKNYLLPILVLFLAYYYYSTNEEFRPEMLQGKKVIVTGASKGIGREMAYHLSKMGAHVVLTARSEEGLQKVVSRCLELGAASAHYIAGTMEDMTFAEQFIVKAGKLMGGLDMLILNHITQTSLSLFHDDIHSVRRVMEVNFLSYVVMSTAALPMLKQSNGSIAVISSLAGKMTQPMIAPYSASKFALDGFFSTIRTELYITKVNVSITLCVLGLIDTETAMKEISGIINAQASPKEECALEIIKGTALRKSEVYYDKSPLTPILLGNPGRKIMEFFSLRYYNKDMFVSN
With B6, the log2FC was -1.766 and the Class entry was “Down”.

B7: sp¦Q9D7X1¦KCTD4_MOUSE (protein, UniProt Q9D7X1 1-259, looked up)
BTB/POZ domain-containing …: MERKIIRREKEREYEGRHNSVEDAEQGKNCKSTLMTLNVGGYLYITQKQTLTKYPDTFLEGIVNGKILCPFDADGHYFIDRDGLLFRHVLNFLRNGELLLPEGFRENQLLAQEAEFFQLKGLAEEVKSRWEKEQLTPRETTFLEITDNHDRSQGLRIFCNAPDFISKIKSRIVLVSKSRLDGFPEEFSVSSNIIQFKYFIKSENGTRLVLKEDNTFVCTLETLKFEAIMMALKCGFRLLTSLDCSKGSIVHSDALHFIK
In the case of B7, the log2FC is -1.758 and the Class result was “Down”.

B8: sp¦Q6A0D4¦RFTN1_MOUSE (protein, UniProt Q6A0D4 2-554, looked up)
Raftlin: GCSLNKLEKREEKRPGNIYSTLKRPQVETKVDVTYEYCFLEFTTLTAAELPRSSATRLASLRDLPDQLLELYQQGFSLAALHPFVQPTRRQEKILLEHIFRAILVKKTNRSQKAELHDEGYTLELDYCSSLEHLADQKLIPEFIKKVQEAASQGLKFVSVVPQYQPSVSSAGSRRLKPVANSVEDARDVKCTLGDRSSLENDTPKAAETDAATAGVNRRPETKPGSTGDVPSAQQPGIPSPSAENEAGEFPLRGLQPALDRSEGDPSNGPEELPSRKMEIFAFFNRPKSQQKCRQYYPVTIPLQVSKNGQTVSSLDASWLEHMSDHFRKGGVLVNAVFQLGMANDSFYGLTDGVFIFEAVSTEDNRTTQGYDAIVVEQWTVLEGTEVQTDYMPLLNSLAAYGWQLTCVLPTPILKTTREGNVSTKQIVFLQRPCLPQKTKKRESKFQWRFSRNEIHGRQTRKSKGKLSASNKQQAEENEKNLEDQFSKAGDVGNCVLGAPQWGRASEVREQRQGSAAVQNGPAGHNRDSVALRHSNPRAEAELAAGPTPTEAN
In the case of B8, the log2FC was -1.516 and the Class result is given as “Down”.
